Data set [1] concerns the target glucose-6-phosphate dehydrogenase (G6PD) from Gluconacetobacter diazotrophicus PAL5 (Gluconacetobacter diazotrophicus PAL5). Description: SEC; Sephacryl 200 (16/60) gel filtration column, 100 mM Tris-HCl pH 7.35, 0.01 M MgCl2, 0.3 mL/min, AKTA pure FPLC; calibrated with Bio-Rad gel filtration standard; oligomeric state of the native protein.
Substrate in data set [2]: O=P(O)(O)OC[C@H]1OC(O)[C@H](O)[C@@H](O)[C@@H]1O
In words: purified protein. It is filed as biochemical, Gluconacetobacter diazotrophicus. The settings on record: NADP+ fixed at 72 µM (~10-fold Km), G6P 0 to 2 mM.

Substrate in data set [3]: NC(=O)c1ccc[n+]([C@@H]2O[C@H](COP(=O)(O)OP(=O)(O)OC[C@H]3O[C@@H](n4cnc5c(N)ncnc54)[C@H](OP(=O)(O)O)[C@@H]3O)[C@@H](O)[C@H]2O)c1
In words: purified protein. The class given is biochemical, Gluconacetobacter diazotrophicus. Conditions: G6P fixed at 630 µM (~10-fold Km), NADP+ 0 to 250 µM.

In general, stoichiometry N refers to a count of units in the complex or per binding partner. With “glucose-6-phosphate dehydrogenase (G6PD) from Gluconacetobacter diazotrophicus PAL5 (enzyme)”, the stoichiometry N in data set [1] was found to be 4.

B1: G6PD from GDI (Gluconacetobacter diazotrophicus PA1 5) (protein)
chain: MDGIVASASSEIQGAGLQPRRAPPCTFVVFGGGGDLTKRLLVPAIYNLACAGLLDDGFSIVAVDWAELSDDILRAQFHEALQDFVAKRGTAAAVLRDDIWRWLNTRVSYLRGSFEDPATFERLGARIGSGNAVFYLAVAARFFGTIVDRLGESHLTDEVGETYRRVIVEKPFGHDLNSARELNIRLLRTLRERQIYRIDHYLGKETVQNIMALRFSNGFFEPLWNRQNIDHVQITAAETVGVEKRGRFYEGTGALRDMVPNHLMQLLAMTAMEAPVSFDADAVRDEKSKVLKAIHCTGPEDVVRGQYGGGVLGGTPVRGYRDEPDVAPASRTETYVAMKLAIDNWRWAGVPFYLRTGKRLAVRKTEIAIHFRRAPYALFRDTPVDRLTPNIMTIHIQPTEGVTLQFGAKIPGPTVRLGGVRMKFDYSEWFSEGPSTGYETLIYDCLTGDATLFQRADNIEAGWRAVQPALDWGERTEAAPLCPYAAGSAGPIEADALLARDGRQWQDLAE
notes: full-length, N-terminal His6 tag removed by TEV protease, E. coli BL21(DE3)pLysS, 510 residues (ORF 1530 bp), 56,483 Da monomer, homotetramer 220 kDa
In general, Km refers to the concentration of substrate that gives half-maximal velocity. On to B1, for which the results for the Km in the data set “purified protein [2]” and in “purified protein [3]” were 63 µM and 7.2 µM, respectively.
